# Data: US20120076797A1, “Modulation of kit signaling and hematopoietic cell development by IL-4 receptor modulation” (priority 2010, published 2012)
# Entries after “also recorded” stand apart in the source; their conditions may differ.
# How the values were obtained:
# Type in all cases: cell-based
# [1] = test system: IL-4R (IL-4Rα and γc subunits); assay: KL stimulation of M07e cells; immunoprecipitation of IL-4R subunits and phosphotyrosine immunoblotting; conditions: growth factor- and serum-deprived 12 hours, 250 ng/ml recombinant human KL, no IL-4
# Description: (§1) Cell culture. M07e cells (DSMZ, Braunschweig, Germany) were cultured in RPMI-1640 (Invitrogen/Gibco, Carlsbad, Calif.) with 10% fetal calf serum (FCS; Omega Scientific, Tarzana, Calif.) in the presence of human IL-3 (20 ng/ml; Biosource, Camarillo, Calif.) and human IL-4 (20 ng/ml; R&D Systems Inc, Minneapolis, Minn.). For stimulation of Kit with Kit ligand (KL), M07e cells were growth factor—as well as serum-deprived for 12 hours prior to stimulation with 250 ng/ml of recombinant human KL (Biosource, Camarillo, Calif.).
# (§2) Immunoprecipitation and immunoblotting. Immunoprecipitation and immunoblotting were performed as reported previously (Mani, M. et al. Blood 114, 2900-2908 (2009)). Following stimulation with KL, cells were collected in ice-cold PBS containing 1 mM sodium ortho-vanadate (Sigma, St. Louis, Mo.), resuspended at a density of 1×10^7-2×10^7 cells/ml in lysis buffer containing 10 mM Tris-HCl (pH7.4), 150 mM NaCl, 20 mM sodium phosphate (pH7.4), 10 mM sodium pyrophosphate (pH7.4), 5 mM EDTA, 1 mM sodium ortho-vanadate, 1 mM glycerophosphate (Sigma) and 1% Triton X-100, and lysed. Protease inhibitors (Complete Protease Inhibitor Cocktail, Roche, Indianapolis, Ind.) were added according to manufacturer's recommendations. Post-nuclear supernatants were subjected to one round of pre-clearing with Protein A Sepharose (Amersham/Pharmacia, Piscataway, N.J.). […]
# Kit = biological target: T1, Kit (Homo sapiens, UniProt P10721); assay: KL stimulation of M07e cells; phosphorylation of Kit; conditions: 250 ng/ml recombinant human KL
# T1 construct: M07e cells are known to express both Kit and IL-4R; host or cells: M07e (human megakaryoblastic cell line)
# Description: as §1, §2
# [2] = test system: murine HSC (Lin-Sca-1+Kit+); IL-4R/STAT6; assay: Intracellular phospho-STAT6 analysis (Phospho-Flow) of murine HSC after IL-4 stimulation; conditions: murine bone marrow Lin-Sca-1+Kit+ HSC, 1 ng/ml recombinant mouse IL-4, 15 min
# Excerpt: Intracellular phospho-STAT6 analysis. Cells derived from c-Kit(BAC)-EGFP mice that are transgenic for a bacterial artificial chromosome expressing EGFP under the control of the Kit promoter were used instead of anti-Kit antibodies (Tallini, Y. N. et al. Proc Natl Acad Sci USA 106, 1808-1813 (2009)). Freshly isolated murine bone marrow mononuclear cells were suspended in cold RPMI-1640 containing 10% FBS and stained with PE-CY7 conjugated anti-mouse Sca-1 (BD Biosciences, San Jose, Calif., Cat 558162) and PE conjugated anti-mouse lineage cocktail (Biolegend, San Diego, Calif. Cat: 78035) at 4° C. for 60 min. The cells were washed with cold RPMI-1640 containing 10% FBS and resuspended in pre-warmed RPMI-1640 containing 10% FBS at concentration of 5-10 million cells/ml. Cells were transferred as 0.5 ml aliquots into flow cytometry test tubes (BD Biosciences, Falcon 2052), rested at 37° C. for 1 hr and stimulated with 1 ng/ml of recombinant mouse IL-4 (Invitrogen, Cat: PMC 0045) for 15 min. Cells were fixed by adding 25 μl of 32% paraformaldehyde (EM grade, Electron Microscopy Sciences, Hatfield, Pa., Cat: 15714) at room temperature for 10 min. […] Samples were washed (centrifugation at 1800 rpm for 5 min) once with staining buffer and analyzed on an FACS Aria II (BD Biosciences). The results were analyzed using Flow Jo software.
# T1 sequence (P10721 26-976): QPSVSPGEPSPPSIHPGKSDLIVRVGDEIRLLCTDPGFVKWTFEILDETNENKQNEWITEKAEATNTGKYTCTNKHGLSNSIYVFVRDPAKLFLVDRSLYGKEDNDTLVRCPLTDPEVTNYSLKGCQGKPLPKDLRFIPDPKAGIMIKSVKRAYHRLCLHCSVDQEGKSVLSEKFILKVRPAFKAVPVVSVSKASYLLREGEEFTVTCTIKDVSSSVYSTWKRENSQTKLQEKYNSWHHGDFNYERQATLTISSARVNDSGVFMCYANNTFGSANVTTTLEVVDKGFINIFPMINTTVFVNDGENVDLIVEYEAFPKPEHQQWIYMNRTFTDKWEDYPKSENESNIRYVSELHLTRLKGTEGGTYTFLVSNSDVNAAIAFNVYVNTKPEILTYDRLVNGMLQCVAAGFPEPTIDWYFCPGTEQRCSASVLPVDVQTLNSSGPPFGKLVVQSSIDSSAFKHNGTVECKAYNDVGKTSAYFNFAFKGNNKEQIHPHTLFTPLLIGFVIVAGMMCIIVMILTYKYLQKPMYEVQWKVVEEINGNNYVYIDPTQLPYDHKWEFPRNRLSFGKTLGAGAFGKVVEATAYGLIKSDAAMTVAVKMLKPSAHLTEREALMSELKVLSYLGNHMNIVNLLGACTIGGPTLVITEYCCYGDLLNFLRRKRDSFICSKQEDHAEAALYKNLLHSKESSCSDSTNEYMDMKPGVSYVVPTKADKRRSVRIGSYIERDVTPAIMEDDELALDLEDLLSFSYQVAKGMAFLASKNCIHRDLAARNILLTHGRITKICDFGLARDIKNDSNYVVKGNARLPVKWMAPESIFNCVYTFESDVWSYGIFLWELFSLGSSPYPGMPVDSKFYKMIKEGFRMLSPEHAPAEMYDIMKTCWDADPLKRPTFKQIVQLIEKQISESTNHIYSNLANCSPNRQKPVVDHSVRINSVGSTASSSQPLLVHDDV
molecule,measurement,setting,value
"KL: recombinant human Kit ligand (Biosource), ligand of the Kit receptor, used to stimulate M07e cells",time to tyrosine phosphorylation of IL-4Rα and γc subunits of IL-4R after KL treatment,[1],≤ 5 min
same,phosphorylation of Kit after KL stimulation,Kit,rapid phosphorylation of Kit
"IL-4: recombinant mouse interleukin 4 (Invitrogen), cognate ligand of IL-4R, used to stimulate murine HSC (protein) HIHGCDKNHLREIIGILNEVTGEGTPCTEMDVPNVLTATKNTTESELVCRASKVLRIFYLKHGKTPCLKKNSSVLMELQRLFRAFRCLDSSISCTMNESKSTSLKDFLESLKSIMQMDYS",STAT6 phosphorylation in response to IL-4 stimulation,[2],STAT6 phosphorylation was observed; also recorded: STATE phosphorylation
